Substrate in the series: CC(C)[C@H](NC(=O)[C@H](CO)NC(=O)CNC(=O)CNC(=O)[C@@H](NC(=O)[C@@H](NC(=O)[C@H](CCCNC(=N)N)NC(=O)CNC(=O)[C@@H]1CCCN1C(=O)[C@H](CO)NC(=O)[C@H](CCCCN)NC(=O)[C@@H](N)CCCCN)C(C)C)C(C)C)C(=O)N[C@@H](C)C(=O)N[C@@H](Cc1c[nH]cn1)C(=O)O
Description: Kinetics of cleavage of synthetic peptides by t-PA (HPLC, Eadie-Hofstee analysis). In kind it is biochemical. Conditions: other: hydrolysis of peptide by t-PA. The protocol: Concentrations of functional t-PA and u-PA were measured by active site titration with 4-methylumbelliferyl p-guanidinobenzoate (Jameson, G., et al., (1973) Biochem. J. 131, 107-117) using a Perkin-Elmer LS 50B Luminescence Fluorometer as previously described (Madison, E. L., et al., (1995) J. Biol. Chem. 270: 7558-7562). In addition, the enzymes were titrated with a standard PAI-1 preparation that had been previously titrated against a trypsin primary standard. Total enzyme concentrations were measured by ELISA.
Individual phage stocks were prepared and digested with no enzyme, t-PA, u-PA, or u-PA in the presence of 1 mM amiloride, a specific inhibitor of u-PA. Kinetic-data were obtained by incubating various concentrations of peptide with a constant enzyme concentration to achieve between 5 and 20% cleavage of the peptide in each reaction. For assays with u-PA, enzyme concentration was either 815 or 635 nM. For assays with t-PA enzyme concentration was 700 nM. […] The buffer used in these assays has been described (Madison, E. L., et al., 1995). Reactions were stopped by addition of triflouroacetic acid to 0.33% or by freezing on dry ice. Cleavage of the 13 and 14 residue peptides was monitored by reverse phase HPLC as described (Madison, E. L., et al., 1995). The 4-6 residue peptides were acylated at their amino termini and amidated at their carboxyl termini. Cleavage of the 4-6 residue peptides was monitored by hydrophilic interaction HPLC chromatography (HILIC) (Alpert, A. J. (1990) J. Chromatog. 499, 177-196.) using a polyhydroxyaspartamine column from PolyLC (Columbia, Md.). Buffer A was 50 mM triethylamine phosphate in 10% acetonitrile and buffer B was 10 mM triethylamine phosphate in 80% acetonitrile. Peptides were eluted by a gradient which was varied from 100% Buffer B to 100% Buffer A during a 13 minute interval. The percent of cleaved peptide was calculated by dividing the area under the product peaks by the total area under substrate and product peaks. […] Errors were determined as described (Taylor, J. R., 1982) An introduction to error analysis. […]

A word on the Km: it is the substrate concentration at which the rate is half of its maximum. As usually defined, the kcat is the maximal rate divided by the concentration of active sites. For orientation: kcat/Km means the turnover number divided by the Michaelis constant.

B1: t-PA (Homo sapiens) (protein)
chain: SYQVICRDEKTQMIYQQHQSWLRPVLRSNRVEYCWCNSGRAQCHSVPVKSCSEPRCFNGGTCQQALYFSDFVCQCPEGFAGKCCEIDTRATCYEDQGISYRGTWSTAESGAECTNWNSSALAQKPYSGRRPDAIRLGLGNHNYCRNPDRDSKPWCYVFKAGKYSSEFCSTPACSEGNSDCYFGNGSAYRGTHSLTESGASCLPWNSMILIGKVYTAQNPSAQALGLGKHNYCRNPDGDAKPWCHVLKNRRLTWEYCDVPSCSTCGLRQYSQPQFRIKGGLFADIASHPWQAAIFAKHRRSPGERFLCGGILISSCWILSAAHCFQERFPPHHLTVILGRTYRVVPGEEEQKFEVEKYIVHKEFDDDTYDNDIALLQLKSDSSRCAQESSVVRTVCLPPADLQLPDWTECELSGYGKHEALSPFYSERLKEAHVRLYPSSRCTSQHLLNRTVTDNMLCAGDTRSGGPQANLHDACQGDSGGPLVCLNDGRMTLVGIISWGLGCGQKDVPGVYTKVTNYLDWIRDNMRP
For B1, the Km worked out at 15 mM, the kcat amounted to 0.0043 s⁻¹ and the kcat/Km worked out at 0.29 M⁻¹ s⁻¹.

The values are drawn from patent publication US20030186329A1, “Use of substrate subtraction libraries to distinguish enzyme specificities” (The Scripps Research Institute, priority 1998, published 2003).
